Experiments:
[1] = tested on: CSC[C@H]1O[C@@H](n2cnc3c(N)ncnc32)[C@H](O)[C@@H]1O; test: purified protein; conditions: phosphate
[2] = tested on: Nc1ncnc2c1ncn2[C@@H]1O[C@H](CO)[C@@H](O)[C@H]1O; test: purified protein; conditions: phosphate
[3] = biological target: Rv0535 (M. tuberculosis methylthioadenosine phosphorylase, MTAP) (Mycobacterium tuberculosis, UniProt O06401); test: HPLC cleavage assay at […]; assay type: biochemical
Chain of Rv0535 (M. tuberculosis methylthioadenosine phosphorylase, MTAP) (O06401 whole entry): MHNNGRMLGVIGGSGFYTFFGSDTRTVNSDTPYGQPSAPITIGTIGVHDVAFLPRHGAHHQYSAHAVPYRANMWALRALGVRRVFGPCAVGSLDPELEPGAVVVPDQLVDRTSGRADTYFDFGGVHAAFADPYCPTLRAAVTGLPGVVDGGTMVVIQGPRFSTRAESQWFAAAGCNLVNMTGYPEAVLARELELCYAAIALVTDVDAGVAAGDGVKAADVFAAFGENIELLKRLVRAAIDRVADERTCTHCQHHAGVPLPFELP

Row | Compound | kcat [1] [s⁻¹] | Km [2] [µM] | Enzyme Activity (nmoles mg^-1 hr^-1) ^a [3] [nmol/mg/h]
1 | Rv0535 (M. tuberculosis methylthioadenosine phosphorylase, MTAP) (Mycobacterium tuberculosis H37Rv) | 0.4 ± 0.2 | 1700 ± 200 | 
2 | Nc1ncnc2c1ncn2[C@@H]1O[C@H](CSCC[C@H](N)C(=O)O)[C@@H](O)[C@H]1O [S-Adenosyl-L-homocysteine] |  |  | 800 ± 100
